Target: T cell receptor subunit CD3ζ (human) (human (endogenous in primary CD4+ T cells))

| Substance | fold downregulation of cell surface CD3 relative to ΔNef, transduced primary huCD4+ T cells, flow cytometry (Fig. 5B) |
| --- | --- |
| SIVmac239 I123L L146F Nef (natural protein) | 2.7 fold |
| SIVmac239 WT Nef (natural protein) | 15.2 fold |

— article PMC12724223
